The values that follow come from patent publication US20070166719A1 (NEW ENGLAND BIOLABS, published 2007).

This test has as its target T1, R-M-CspCI endonuclease-methyltransferase subunit (Citrobacter species 2144 (NEB#1398)).
T1 construct: also called large subunit; R-M-subunit
T1 chain: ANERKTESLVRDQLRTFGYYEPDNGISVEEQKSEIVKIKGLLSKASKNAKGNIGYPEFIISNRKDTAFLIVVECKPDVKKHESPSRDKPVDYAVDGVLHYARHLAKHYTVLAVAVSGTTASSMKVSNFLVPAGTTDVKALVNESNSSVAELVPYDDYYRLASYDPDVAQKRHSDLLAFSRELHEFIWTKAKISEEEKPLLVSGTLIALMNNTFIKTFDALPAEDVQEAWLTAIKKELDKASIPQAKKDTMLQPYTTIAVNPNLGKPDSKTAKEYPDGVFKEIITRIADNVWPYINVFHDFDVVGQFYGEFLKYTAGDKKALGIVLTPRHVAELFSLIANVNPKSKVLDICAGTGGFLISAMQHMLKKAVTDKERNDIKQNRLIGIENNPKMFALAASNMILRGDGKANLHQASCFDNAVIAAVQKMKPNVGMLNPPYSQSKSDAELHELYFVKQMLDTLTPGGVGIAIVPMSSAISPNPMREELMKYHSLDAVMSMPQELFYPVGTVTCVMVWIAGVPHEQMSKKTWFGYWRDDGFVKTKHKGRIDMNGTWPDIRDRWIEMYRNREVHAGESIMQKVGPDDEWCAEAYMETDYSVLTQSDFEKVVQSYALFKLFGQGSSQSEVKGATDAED
Nature of the test: HPLC of purified CspCI; molar ratio derived from the mass ratio 1:0.47.

B1: CspCI specificity subunit (S-CspCI) (other)
chain: PKINDLFHLEYGHSLELNRLEQSTAADAVNFVGRAARNNGVTARVAPPPNLKPAAAGTISVALGGQGGAGVAFLQPRPYFCGRDVMVLTPKKHMTDQEKLWWVMCITANRFRFGFGRQANRTLKDLNLPAPQKTPSWVHTANPDAYQGVRSPASVHPVGTLAVSNWKAFILQDLFTIRKGQRLTKANMLPGTVPYIGASDTSNGVTAHIGQKPIHEGGTISVTYDGSIAEAFYQPSPFWASDAVNVLYPKGFTLTPATALFICAIIRMEKYRFNYGRKWHLERMRETVIRLPATATGAPDWDFMEKYIKTLPYSSQLQ
notes: also called small subunit; S-subunit
On to B1, for which the “molar ratio (70 kDa : 35 kDa protein in the purified enzyme)” value was 1.06 mol small subunit per mol large subunit.
